# From IntAct's records for PubMed 15485833
# B1: Actin nucleation-promoting factor WASL (Homo sapiens), O00401 (parent)
# chain: MSSVQQQPPPPRRVTNVGSLLLTPQENESLFTFLGKKCVTMSSAVVQLYAADRNCMWSKKCSGVACLVKDNPQRSYFLRIFDIKDGKLLWEQELYNNFVYNSPRGYFHTFAGDTCQVALNFANEEEAKKFRKAVTDLLGRRQRKSEKRRDPPNGPNLPMATVDIKNPEITTNRFYGPQVNNISHTKEKKKGKAKKKRLTKADIGTPSNFQHIGHVGWDPNTGFDLNNLDPELKNLFDMCGISEAQLKDRETSKVIYDFIEKTGGVEAVKNELRRQAPPPPPPSRGGPPPPPPPPHNSGPPPPPARGRGAPPPPPSRAPTAAPPPPPPSRPSVAVPPPPPNRMYPPPPPALPSSAPSGPPPPPPSVLGVGPVAPPPPPPPPPPPGPPPPPGLPSDGDHQVPTTAGNKAALLDQIREGAQLKKVEQNSRPVSCSGRDALLDQIRQGIQLKSVADGQESTPPTPAPTSGIVGALMEVMQKRSKAIHSSDEDEDEDDEEDFEDDDEWED
# Variants of: B1
# Settings: with arpc1_yeast ARC40, P38328
# Chain of arpc1_yeast ARC40, P38328 (P38328 whole entry): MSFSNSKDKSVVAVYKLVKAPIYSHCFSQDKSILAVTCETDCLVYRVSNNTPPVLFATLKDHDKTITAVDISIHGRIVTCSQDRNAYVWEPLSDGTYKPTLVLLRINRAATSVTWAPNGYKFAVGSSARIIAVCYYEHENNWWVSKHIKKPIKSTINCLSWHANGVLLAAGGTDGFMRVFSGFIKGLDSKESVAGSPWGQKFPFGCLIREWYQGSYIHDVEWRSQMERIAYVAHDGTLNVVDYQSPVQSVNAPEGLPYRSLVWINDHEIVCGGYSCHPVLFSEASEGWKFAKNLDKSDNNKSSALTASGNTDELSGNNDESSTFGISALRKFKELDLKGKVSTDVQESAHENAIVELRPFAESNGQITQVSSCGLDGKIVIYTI
row,effect of a mutation on the interaction,Variant
1,decreasing interaction,W503A

# Variants of: B1
# Settings: with arp3_yeast ARP3, P47117
# Chain of arp3_yeast ARP3, P47117 (P47117 whole entry): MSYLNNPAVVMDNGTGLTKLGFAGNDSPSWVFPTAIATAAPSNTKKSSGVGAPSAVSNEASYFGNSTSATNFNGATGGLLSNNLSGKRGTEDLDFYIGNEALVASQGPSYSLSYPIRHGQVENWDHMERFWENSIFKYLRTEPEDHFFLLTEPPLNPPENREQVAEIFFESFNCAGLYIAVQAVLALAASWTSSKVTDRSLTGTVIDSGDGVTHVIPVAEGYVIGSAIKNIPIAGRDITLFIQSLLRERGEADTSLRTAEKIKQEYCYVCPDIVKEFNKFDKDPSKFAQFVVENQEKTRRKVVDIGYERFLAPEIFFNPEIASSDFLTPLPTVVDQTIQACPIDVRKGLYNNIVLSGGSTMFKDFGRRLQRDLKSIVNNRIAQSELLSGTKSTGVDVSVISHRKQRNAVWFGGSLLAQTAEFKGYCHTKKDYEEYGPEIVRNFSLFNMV
row,effect of a mutation on the interaction,Variant
1,decreasing interaction,W503A

# Variants of: B1
# Settings: with arp2_yeast ARP2, P32381
# Chain of arp2_yeast ARP2, P32381 (P32381 whole entry): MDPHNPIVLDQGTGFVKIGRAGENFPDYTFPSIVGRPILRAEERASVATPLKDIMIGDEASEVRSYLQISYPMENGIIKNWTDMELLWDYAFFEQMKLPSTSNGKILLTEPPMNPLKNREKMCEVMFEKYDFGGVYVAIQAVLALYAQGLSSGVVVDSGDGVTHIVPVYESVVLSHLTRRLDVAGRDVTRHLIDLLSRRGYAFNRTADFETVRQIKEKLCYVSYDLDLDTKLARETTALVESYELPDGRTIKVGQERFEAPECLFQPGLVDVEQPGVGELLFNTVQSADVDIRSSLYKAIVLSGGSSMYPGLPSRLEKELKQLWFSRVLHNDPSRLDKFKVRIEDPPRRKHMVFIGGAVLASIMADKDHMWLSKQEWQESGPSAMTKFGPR
row,effect of a mutation on the interaction,Variant
1,decreasing interaction,W503A
